Measured values reported in patent publication US20220332804A1 (CSL INNOVATION, published 2022).

Assays:
Test in all cases: SPR, mAb captured, C2 mutant analyte;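 further: Anti-C2 mAbs captured on goat anti-human IgG Biacore CM5 chips, alanine or serine C2 surface mutants flowed over at 37 °C, double-referenced sensorgrams fitted to a 1:1 binding model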
human C2 V418A = molecular target: T1, human C2 V418A (human, UniProt P06681 21-752)
T1 sequence: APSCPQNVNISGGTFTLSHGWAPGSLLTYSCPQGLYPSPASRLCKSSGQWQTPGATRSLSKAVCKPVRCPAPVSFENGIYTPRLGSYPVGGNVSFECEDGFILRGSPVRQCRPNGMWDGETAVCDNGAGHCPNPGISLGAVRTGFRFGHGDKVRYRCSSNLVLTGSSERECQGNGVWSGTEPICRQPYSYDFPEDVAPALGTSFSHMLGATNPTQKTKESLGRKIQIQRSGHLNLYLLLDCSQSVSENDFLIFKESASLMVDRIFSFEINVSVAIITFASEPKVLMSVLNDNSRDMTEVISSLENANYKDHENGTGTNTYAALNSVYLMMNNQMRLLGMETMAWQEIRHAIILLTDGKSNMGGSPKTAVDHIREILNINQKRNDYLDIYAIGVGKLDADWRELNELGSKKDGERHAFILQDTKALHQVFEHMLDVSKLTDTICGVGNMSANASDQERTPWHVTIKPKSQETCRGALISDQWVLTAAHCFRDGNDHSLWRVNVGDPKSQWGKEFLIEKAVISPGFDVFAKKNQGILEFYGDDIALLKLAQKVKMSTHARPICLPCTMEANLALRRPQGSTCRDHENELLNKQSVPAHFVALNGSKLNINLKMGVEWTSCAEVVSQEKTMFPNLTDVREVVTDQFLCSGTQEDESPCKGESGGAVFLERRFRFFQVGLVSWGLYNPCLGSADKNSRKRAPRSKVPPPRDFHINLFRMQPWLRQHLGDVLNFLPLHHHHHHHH

human C2 S456A = molecular target: T2, human C2 S456A (human, UniProt P06681 21-752)
T2 sequence: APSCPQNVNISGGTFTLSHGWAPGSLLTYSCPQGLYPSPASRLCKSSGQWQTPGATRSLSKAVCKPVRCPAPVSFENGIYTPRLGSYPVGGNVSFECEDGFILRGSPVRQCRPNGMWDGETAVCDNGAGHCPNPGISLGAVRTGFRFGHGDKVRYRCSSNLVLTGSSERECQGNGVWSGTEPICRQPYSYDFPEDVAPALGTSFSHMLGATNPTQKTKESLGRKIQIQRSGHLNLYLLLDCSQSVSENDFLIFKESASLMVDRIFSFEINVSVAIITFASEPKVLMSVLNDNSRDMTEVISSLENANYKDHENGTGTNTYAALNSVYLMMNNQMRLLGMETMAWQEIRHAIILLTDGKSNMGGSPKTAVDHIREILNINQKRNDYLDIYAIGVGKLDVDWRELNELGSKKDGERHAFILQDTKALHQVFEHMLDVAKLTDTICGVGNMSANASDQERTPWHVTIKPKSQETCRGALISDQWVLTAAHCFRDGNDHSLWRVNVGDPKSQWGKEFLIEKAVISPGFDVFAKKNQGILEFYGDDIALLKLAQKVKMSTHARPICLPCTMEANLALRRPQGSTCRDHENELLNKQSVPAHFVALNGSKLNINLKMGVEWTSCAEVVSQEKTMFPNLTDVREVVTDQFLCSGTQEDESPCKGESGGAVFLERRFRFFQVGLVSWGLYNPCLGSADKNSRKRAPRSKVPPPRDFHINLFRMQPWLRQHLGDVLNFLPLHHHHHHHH

human C2 K457A = molecular target: T3, human C2 K457A (human, UniProt P06681 21-752)
T3 sequence: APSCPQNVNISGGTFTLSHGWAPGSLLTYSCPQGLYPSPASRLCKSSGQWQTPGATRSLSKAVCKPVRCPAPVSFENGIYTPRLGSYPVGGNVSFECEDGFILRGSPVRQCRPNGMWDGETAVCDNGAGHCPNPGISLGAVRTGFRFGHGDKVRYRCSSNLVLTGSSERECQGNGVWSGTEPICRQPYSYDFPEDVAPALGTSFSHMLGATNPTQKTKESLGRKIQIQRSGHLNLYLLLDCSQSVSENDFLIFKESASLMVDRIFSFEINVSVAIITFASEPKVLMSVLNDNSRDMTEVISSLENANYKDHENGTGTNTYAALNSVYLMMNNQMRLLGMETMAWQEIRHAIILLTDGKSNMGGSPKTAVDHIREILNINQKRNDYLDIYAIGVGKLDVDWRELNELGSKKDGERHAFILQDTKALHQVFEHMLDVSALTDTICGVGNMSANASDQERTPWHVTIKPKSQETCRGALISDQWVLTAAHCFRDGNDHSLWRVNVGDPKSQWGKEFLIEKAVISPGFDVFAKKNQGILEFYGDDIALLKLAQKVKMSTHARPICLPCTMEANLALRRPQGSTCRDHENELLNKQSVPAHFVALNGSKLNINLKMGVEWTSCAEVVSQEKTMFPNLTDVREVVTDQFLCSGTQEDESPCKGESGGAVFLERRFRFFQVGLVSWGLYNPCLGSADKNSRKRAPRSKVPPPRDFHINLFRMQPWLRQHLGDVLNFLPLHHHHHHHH

human C2 N471A = molecular target: T4, human C2 N471A (human, UniProt P06681 21-752)
T4 sequence: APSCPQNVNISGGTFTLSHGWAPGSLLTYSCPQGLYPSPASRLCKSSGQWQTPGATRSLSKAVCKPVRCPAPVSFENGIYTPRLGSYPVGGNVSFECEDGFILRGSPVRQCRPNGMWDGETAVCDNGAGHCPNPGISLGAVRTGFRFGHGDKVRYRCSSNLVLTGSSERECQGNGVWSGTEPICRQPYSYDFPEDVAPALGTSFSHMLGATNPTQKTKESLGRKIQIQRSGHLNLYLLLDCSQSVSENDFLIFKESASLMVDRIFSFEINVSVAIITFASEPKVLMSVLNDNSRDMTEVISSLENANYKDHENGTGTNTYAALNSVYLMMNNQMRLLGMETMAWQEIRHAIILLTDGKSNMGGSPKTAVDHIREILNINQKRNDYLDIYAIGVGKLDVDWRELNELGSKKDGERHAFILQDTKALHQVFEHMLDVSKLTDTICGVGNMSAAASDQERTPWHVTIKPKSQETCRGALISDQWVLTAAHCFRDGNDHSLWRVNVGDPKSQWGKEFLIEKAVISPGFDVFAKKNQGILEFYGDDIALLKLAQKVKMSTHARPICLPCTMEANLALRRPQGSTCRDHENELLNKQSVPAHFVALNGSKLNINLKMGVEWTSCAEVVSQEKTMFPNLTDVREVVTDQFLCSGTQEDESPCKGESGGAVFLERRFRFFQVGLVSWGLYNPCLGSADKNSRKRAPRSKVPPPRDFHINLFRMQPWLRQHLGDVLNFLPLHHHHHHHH

Kd (human C2 V418A): 0.0156 µM | Kd (human C2 S456A): 0.157 µM | Kd (human C2 K457A): 0.0418 µM | Kd (human C2 N471A): 0.0328 µM
B1: RF16-214 (antibody, V domains shown)
VH: EVQLLESGGGLVQPGGSLRLSCAASGFTFSWYQMMWVRQAPGKGLEWVSRIYPSGGGTAYADSVKGRFTISRDNSKNTLYLQMNSLRAEDTAVYYCARDAGYGDNWGQGTLVTVSS
VL: QSALTQPPSVSVSPGQTASITCSGDKLGEKYASWYQQKAGQSPVMVIYQDRKRPSGIPERFSGSNSGNTATLTISGTQAMDEADYYCQAWDTRAVVFGGGTKLTVLG
